According to the supplement of paper PMC10567573:

B1: FBXO33 (parent)
chain: RLRGLLRVLRGRPGAGSRRRGRMA
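Also: lentivirally expressed fusions sorted by FACS into six bins by GFP to DsRed ratio, PSI derived from sequencing read proportions per bin multiplied by bin number.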

Variants of: B1
Assay: protein stability index of a GFP-peptide fusion (GPS, HEK-293T) (PSI 1-6); higher = more stable
Conditions: c terminus: a fixed tail appended
In the case of RLRGLLRVLRPRPGAGSRRRGRMA [G11P], the protein stability index is reported as 2.23.
For RLRGLLRRLRGRPGAGSRRRGRMA [V8R], the protein stability index was 2.54.
For RLRGLLRVLRGRPGAQSRRRGRMA [G16Q], the protein stability index was 1.65.
With RLRGLARVLRGRPGAGSRRRGRMA [L6A] the protein stability index was 3.57.
In the case of RLRGLLRVVRGRPGAGSRRRGRMA [L9V], the protein stability index is reported as 1.92.
Variant RLRGLLRNLRGRPGAGSRRRGRMA [V8N] has a protein stability index of 2.01.
RLRGLLRVLRGRPGAFSRRRGRMA [G16F] gave a protein stability index of 1.79.
With RLRGLLRVLRGRPCAGSRRRGRMA [G14C] the protein stability index was 1.84.
Variant RLRGLLRVLAGRPGAGSRRRGRMA [R10A] has a protein stability index of 1.96.
Work on LLRGLLRVLRGRPGAGSRRRGRMA [R1L] yielded a protein stability index of 1.59.
Variant RLRGLLRVLRGRPGAGSRRRGYMA [R22Y] has a protein stability index of 1.7.
In the case of RLRGLLRVTRGRPGAGSRRRGRMA [L9T], the protein stability index is reported as 4.
With RLRGLLRVLRGAPGAGSRRRGRMA [R12A] the protein stability index was 3.08.
Work on RLRGLLRVLRGRPGAGSCRRGRMA [R18C] yielded a protein stability index of 1.8.
In the case of RLRGLERVLRGRPGAGSRRRGRMA [L6E], the protein stability index is reported as 2.75.
RLRGLVRVLRGRPGAGSRRRGRMA [L6V] gave a protein stability index of 2.77.
Variant RLRGLLRVLRGRPGAGSRRRGRML [A24L] has a protein stability index of 1.64.
Variant RLRGLLRVLRGRPAAGSRRRGRMA [G14A] has a protein stability index of 2.84.
In the case of RLRGLLRVLRGRPGAGSRRRRRMA [G21R], the protein stability index is reported as 3.38.
In the case of RLQGLLRVLRGRPGAGSRRRGRMA [R3Q], the protein stability index is reported as 2.21.
RLRGLLRVLRGRPGALSRRRGRMA [G16L] showed a protein stability index of 1.44.
RLRGGLRVLRGRPGAGSRRRGRMA [L5G] gave a protein stability index of 4.71.
RLRGLLRVLRGRPGAGKRRRGRMA [S17K] showed a protein stability index of 2.01.
In the case of RLRGLLRVLRGRIGAGSRRRGRMA [P13I], the protein stability index is reported as 1.6.
RLRGLLRVLRGRPGAGSRRRGRNA [M23N] showed a protein stability index of 2.02.
With RLRGLLRVLRGWPGAGSRRRGRMA [R12W] the protein stability index was 1.79.
RMRGLLRVLRGRPGAGSRRRGRMA [L2M] showed a protein stability index of 3.22.
RLRGLLRVLRGRPGKGSRRRGRMA [A15K] showed a protein stability index of 1.25.
RLRELLRVLRGRPGAGSRRRGRMA [G4E] gave a protein stability index of 2.08.
RLRGLLRVLRGRPGWGSRRRGRMA [A15W] gave a protein stability index of 1.8.
In the case of RLRGLLRVLRGRPGDGSRRRGRMA [A15D], the protein stability index is reported as 1.66.
RLRGLRRVLRGRPGAGSRRRGRMA [L6R] showed a protein stability index of 4.41.
RLRGLLRVKRGRPGAGSRRRGRMA [L9K] gave a protein stability index of 3.26.
RLRRLLRVLRGRPGAGSRRRGRMA [G4R] gave a protein stability index of 2.06.
Variant RLRGLLRVLRGRPGANSRRRGRMA [G16N] has a protein stability index of 2.57.
RLRGLLRVLRGRPGAGSRRRGWMA [R22W] gave a protein stability index of 1.65.
Work on RLRGLLRVLRGRPGSGSRRRGRMA [A15S] yielded a protein stability index of 1.6.
Work on RLRGLLRVLRNRPGAGSRRRGRMA [G11N] yielded a protein stability index of 2.47.
RLRGLLRVLRGRPGAGSRQRGRMA [R19Q] gave a protein stability index of 1.75.
Variant RLRGLLRVNRGRPGAGSRRRGRMA [L9N] has a protein stability index of 3.72.
With RLRGLKRVLRGRPGAGSRRRGRMA [L6K] the protein stability index was 2.73.
RLRGLLRVLRGRHGAGSRRRGRMA [P13H] gave a protein stability index of 1.77.
Variant RLRGLLRVLRGTPGAGSRRRGRMA [R12T] has a protein stability index of 2.03.
In the case of RLRGLLLVLRGRPGAGSRRRGRMA [R7L], the protein stability index is reported as 2.56.
Work on RLRGLLRVLRGRPGAGSPRRGRMA [R18P] yielded a protein stability index of 1.08.
With RLRGLLRVLRGRPGAGSRRRGRMI [A24I] the protein stability index was 1.46.
In the case of RFRGLLRVLRGRPGAGSRRRGRMA [L2F], the protein stability index is reported as 2.1.
RLRGLLRVLRGRPGAHSRRRGRMA [G16H] gave a protein stability index of 1.83.
For RLRGLLRVLRGDPGAGSRRRGRMA [R12D], the protein stability index was 2.31.
In the case of DLRGLLRVLRGRPGAGSRRRGRMA [R1D], the protein stability index is reported as 2.92.
In the case of SLRGLLRVLRGRPGAGSRRRGRMA [R1S], the protein stability index is reported as 1.75.
Work on RLRGLLRVLRGLPGAGSRRRGRMA [R12L] yielded a protein stability index of 1.66.
Variant RLRGLLRVLRGRPGAGSRWRGRMA [R19W] has a protein stability index of 1.48.
For RLRGLLRVLRGRDGAGSRRRGRMA [P13D], the protein stability index was 2.01.
With RLRGLLRVLRGRCGAGSRRRGRMA [P13C] the protein stability index was 2.09.
Variant RLRGLLRVLRGRPGAGSIRRGRMA [R18I] has a protein stability index of 1.72.
Variant WLRGLLRVLRGRPGAGSRRRGRMA [R1W] has a protein stability index of 1.69.
Work on RLRGLLRVLRGRPGAGSHRRGRMA [R18H] yielded a protein stability index of 1.59.
Variant RLRGLLRKLRGRPGAGSRRRGRMA [V8K] has a protein stability index of 1.91.
RLRGLLRVLRGRPGTGSRRRGRMA [A15T] showed a protein stability index of 1.47.
RLRGLLRVLRGRPGAGARRRGRMA [S17A] gave a protein stability index of 1.75.
Variant RLRGLLYVLRGRPGAGSRRRGRMA [R7Y] has a protein stability index of 2.41.
For RLRGLLRVLRGRPGAGFRRRGRMA [S17F], the protein stability index was 2.58.
With RLRGLGRVLRGRPGAGSRRRGRMA [L6G] the protein stability index was 4.8.
With RLRGLLRVLRGRPGAGSRRHGRMA [R20H] the protein stability index was 1.23.
Work on RLRGLLRVLRGRPWAGSRRRGRMA [G14W] yielded a protein stability index of 2.76.
Variant CLRGLLRVLRGRPGAGSRRRGRMA [R1C] has a protein stability index of 1.2.
Variant RLRGLLRFLRGRPGAGSRRRGRMA [V8F] has a protein stability index of 2.83.
For RLRGLLRCLRGRPGAGSRRRGRMA [V8C], the protein stability index was 2.06.
With RLRGPLRVLRGRPGAGSRRRGRMA [L5P] the protein stability index was 4.32.
Work on RLRGLLRVLRGRPGAGSRRRGRLA [M23L] yielded a protein stability index of 2.89.
For RLRGLLRVLRGRPKAGSRRRGRMA [G14K], the protein stability index was 1.86.
Variant RLTGLLRVLRGRPGAGSRRRGRMA [R3T] has a protein stability index of 2.23.
In the case of RLRGLLRVLRGRPGAGSVRRGRMA [R18V], the protein stability index is reported as 1.26.
RWRGLLRVLRGRPGAGSRRRGRMA [L2W] gave a protein stability index of 3.3.
Work on RLRGLLRTLRGRPGAGSRRRGRMA [V8T] yielded a protein stability index of 1.81.
For RLRGLTRVLRGRPGAGSRRRGRMA [L6T], the protein stability index was 4.48.
RLRGLLRVLRGRPGLGSRRRGRMA [A15L] showed a protein stability index of 1.19.
With RLRGNLRVLRGRPGAGSRRRGRMA [L5N] the protein stability index was 4.52.
In the case of RLRGLLRVWRGRPGAGSRRRGRMA [L9W], the protein stability index is reported as 2.83.
In the case of RLKGLLRVLRGRPGAGSRRRGRMA [R3K], the protein stability index is reported as 2.83.
Variant RLRGLLRVLRGRPGAGSRSRGRMA [R19S] has a protein stability index of 1.79.
With RLRGLCRVLRGRPGAGSRRRGRMA [L6C] the protein stability index was 2.07.
Work on RKRGLLRVLRGRPGAGSRRRGRMA [L2K] yielded a protein stability index of 3.56.
With RLRGLLRVLRGGPGAGSRRRGRMA [R12G] the protein stability index was 2.53.
In the case of RLRGLLRVLRGRPGAGSRRRDRMA [G21D], the protein stability index is reported as 1.78.
Work on RQRGLLRVLRGRPGAGSRRRGRMA [L2Q] yielded a protein stability index of 5.05.
Variant RLRGLLRVLRGRPGAGSRRRGKMA [R22K] has a protein stability index of 1.76.
ALRGLLRVLRGRPGAGSRRRGRMA [R1A] gave a protein stability index of 1.7.
In the case of RLRGLLRDLRGRPGAGSRRRGRMA [V8D], the protein stability index is reported as 2.47.
Variant RLRGLLRVLRGSPGAGSRRRGRMA [R12S] has a protein stability index of 2.19.
In the case of RLRGLLRVLRGRPGAGSRRRLRMA [G21L], the protein stability index is reported as 1.57.
RLRGLLRVLRGRPGAGSRREGRMA [R20E] showed a protein stability index of 2.29.
Variant RLRGLLRILRGRPGAGSRRRGRMA [V8I] has a protein stability index of 2.84.
